By Kd is commonly meant the concentration at which binding is half-saturated. The low end stands for tighter binding, the high end for weaker binding.

Where two headings read alike, the source gives them in different places.

What all share (test): EMSA
(A gel shift assay detects complexes by their altered migration in electrophoresis.)

For one data set, the target named is CST (CTC1-STN1-TEN1) (human, UniProt Q2NKJ3;Q9H668;Q86WV5 1-1217;1-368;1-123).
Data set [1] has as its target T1, RPA (UniProt P27694;P15927;P35244 1-616;1-270;1-121).
Data set [2] concerns the target T1, RPA. This is another data set of the same source.

T1 sequence (P27694 whole entry, chain 1 of 3): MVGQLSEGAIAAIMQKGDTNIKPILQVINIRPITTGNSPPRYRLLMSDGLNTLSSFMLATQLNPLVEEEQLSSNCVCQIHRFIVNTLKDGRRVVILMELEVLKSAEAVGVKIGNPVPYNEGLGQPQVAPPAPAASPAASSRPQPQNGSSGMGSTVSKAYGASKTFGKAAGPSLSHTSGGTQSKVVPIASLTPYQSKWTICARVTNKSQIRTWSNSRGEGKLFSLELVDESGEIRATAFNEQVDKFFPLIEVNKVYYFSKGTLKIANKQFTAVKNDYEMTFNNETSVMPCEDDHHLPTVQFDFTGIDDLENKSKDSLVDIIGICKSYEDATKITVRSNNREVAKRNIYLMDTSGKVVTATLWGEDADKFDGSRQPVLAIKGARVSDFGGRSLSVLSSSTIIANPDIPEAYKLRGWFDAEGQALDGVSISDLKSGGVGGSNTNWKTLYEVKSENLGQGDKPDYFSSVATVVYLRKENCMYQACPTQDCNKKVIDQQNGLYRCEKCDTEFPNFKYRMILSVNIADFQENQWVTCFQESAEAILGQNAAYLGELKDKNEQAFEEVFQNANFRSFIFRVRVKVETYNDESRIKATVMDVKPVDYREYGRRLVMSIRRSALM
T1 sequence (P15927 whole entry, chain 2 of 3): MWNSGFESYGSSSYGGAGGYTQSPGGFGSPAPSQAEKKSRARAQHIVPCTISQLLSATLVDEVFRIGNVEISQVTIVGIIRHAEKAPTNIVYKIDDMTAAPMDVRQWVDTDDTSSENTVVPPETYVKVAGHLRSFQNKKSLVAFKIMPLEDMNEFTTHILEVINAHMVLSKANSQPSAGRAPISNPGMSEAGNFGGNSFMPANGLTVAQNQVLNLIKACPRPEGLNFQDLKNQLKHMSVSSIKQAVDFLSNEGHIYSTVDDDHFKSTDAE
T1 sequence (P35244 whole entry, chain 3 of 3): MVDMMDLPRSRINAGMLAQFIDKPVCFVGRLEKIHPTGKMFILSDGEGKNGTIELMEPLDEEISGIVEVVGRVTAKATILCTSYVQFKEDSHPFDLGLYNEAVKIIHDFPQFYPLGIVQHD
Chain of CST (CTC1-STN1-TEN1) (Q2NKJ3 whole entry, chain 1 of 3): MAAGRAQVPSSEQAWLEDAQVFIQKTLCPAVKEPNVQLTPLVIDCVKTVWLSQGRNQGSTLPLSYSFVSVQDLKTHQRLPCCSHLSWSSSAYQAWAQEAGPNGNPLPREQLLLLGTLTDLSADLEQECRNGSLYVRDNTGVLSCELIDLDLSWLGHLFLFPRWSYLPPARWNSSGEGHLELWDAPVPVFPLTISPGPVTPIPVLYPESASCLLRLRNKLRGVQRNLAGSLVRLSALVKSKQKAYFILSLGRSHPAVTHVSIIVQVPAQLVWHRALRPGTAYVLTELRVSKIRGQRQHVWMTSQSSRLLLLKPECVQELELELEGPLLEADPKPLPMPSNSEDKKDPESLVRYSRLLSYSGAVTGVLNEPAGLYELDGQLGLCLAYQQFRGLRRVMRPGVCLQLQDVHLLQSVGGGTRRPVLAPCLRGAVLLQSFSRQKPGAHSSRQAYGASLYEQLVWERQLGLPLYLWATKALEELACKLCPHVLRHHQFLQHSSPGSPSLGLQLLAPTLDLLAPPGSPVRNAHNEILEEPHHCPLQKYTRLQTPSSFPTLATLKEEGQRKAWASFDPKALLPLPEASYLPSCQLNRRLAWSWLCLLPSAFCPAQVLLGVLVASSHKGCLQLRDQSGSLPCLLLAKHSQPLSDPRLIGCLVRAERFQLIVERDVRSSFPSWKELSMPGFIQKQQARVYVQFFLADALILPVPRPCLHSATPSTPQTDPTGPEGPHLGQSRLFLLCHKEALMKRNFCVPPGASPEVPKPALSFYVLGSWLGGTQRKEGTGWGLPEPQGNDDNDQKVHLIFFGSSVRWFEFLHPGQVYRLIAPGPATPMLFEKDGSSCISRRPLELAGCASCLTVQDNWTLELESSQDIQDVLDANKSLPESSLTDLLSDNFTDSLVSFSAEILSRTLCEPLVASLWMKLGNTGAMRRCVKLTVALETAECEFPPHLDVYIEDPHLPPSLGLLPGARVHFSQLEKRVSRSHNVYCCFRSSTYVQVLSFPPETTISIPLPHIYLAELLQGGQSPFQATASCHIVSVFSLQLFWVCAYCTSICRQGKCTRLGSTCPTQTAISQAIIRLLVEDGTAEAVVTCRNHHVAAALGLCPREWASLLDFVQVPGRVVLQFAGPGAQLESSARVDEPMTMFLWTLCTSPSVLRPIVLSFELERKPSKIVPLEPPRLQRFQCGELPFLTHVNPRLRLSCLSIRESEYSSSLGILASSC
Chain of CST (CTC1-STN1-TEN1) (Q9H668 whole entry, chain 2 of 3): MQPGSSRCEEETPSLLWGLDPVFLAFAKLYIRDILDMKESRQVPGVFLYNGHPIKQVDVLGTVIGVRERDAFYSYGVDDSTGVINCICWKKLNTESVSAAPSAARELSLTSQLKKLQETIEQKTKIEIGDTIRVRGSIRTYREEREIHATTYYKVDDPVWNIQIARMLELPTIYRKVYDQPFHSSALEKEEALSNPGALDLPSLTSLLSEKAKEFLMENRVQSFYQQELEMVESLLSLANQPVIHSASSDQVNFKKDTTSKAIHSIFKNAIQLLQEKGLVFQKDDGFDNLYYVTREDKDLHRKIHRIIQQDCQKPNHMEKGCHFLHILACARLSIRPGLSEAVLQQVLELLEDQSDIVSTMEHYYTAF
Chain of CST (CTC1-STN1-TEN1) (Q86WV5 whole entry, chain 3 of 3): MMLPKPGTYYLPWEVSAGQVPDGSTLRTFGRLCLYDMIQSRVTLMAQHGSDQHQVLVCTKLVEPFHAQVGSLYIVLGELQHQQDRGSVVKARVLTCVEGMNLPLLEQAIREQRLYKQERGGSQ

For the molecule GGGTTAGGGTTAGGGTTAGGG (ssDNA) [Tel21], the Kd in the data set with CST (CTC1-STN1-TEN1) was 1.3 nM; with RPA [1] it was 1.9 nM. GGGTTAGGGTTAGGGTTAGGG (structured_DNA) [Tel21 G4] came in with a dissociation constant (Kd) with RPA [2] of 5.5 nM.
